Measured values from patent US20120178682A1 (published 2012).
Bridge positions count the residues as written; N and C are the ends. Ends that are not written are not given here.

Key:
[1] = target: VEGF (form and enantiomer not stated at paragraph 530); test: Octet-SPR, preliminary estimate, reference RFX001
[2] = target: VEGF (form and enantiomer not stated at paragraph 530); test: standard SPR, preliminary estimate, reference RFX001

Chain of VEGF (form and enantiomer not stated at paragraph 530) (P15692 whole entry): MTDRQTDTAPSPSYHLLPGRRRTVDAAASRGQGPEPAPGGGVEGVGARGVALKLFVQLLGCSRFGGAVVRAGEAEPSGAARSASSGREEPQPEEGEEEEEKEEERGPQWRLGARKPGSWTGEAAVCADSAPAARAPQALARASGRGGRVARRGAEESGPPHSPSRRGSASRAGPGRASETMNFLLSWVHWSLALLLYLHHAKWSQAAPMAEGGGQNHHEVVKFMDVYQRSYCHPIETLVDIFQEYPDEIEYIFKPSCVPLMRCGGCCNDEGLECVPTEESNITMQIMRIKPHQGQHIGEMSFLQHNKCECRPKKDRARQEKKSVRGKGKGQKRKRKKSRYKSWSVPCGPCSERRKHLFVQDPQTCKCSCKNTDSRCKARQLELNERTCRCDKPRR

B1: RFX002 (enantiomer and preparation not stated at paragraph 530) (designed binder)
chain: TYKMILNGKTLKSECTTEAVDLFDAFDVLFVCAASNFSFIDDWTYDDATKTFTVTE
modifications: disulfide 15-32 (inferred); also: enantiomer (L- or D-form) not given here
fold increase of binding affinity against RFX001 [1]: ~5 fold
fold increase of binding affinity against RFX001 [2]: ~2 fold
